The target of the assay is T1, mANGPTL4-His [R26-S410 of mANGPTL4 (SEQ ID NO: 478) fused with an AS linker to a C-terminal 6-histidine tag] (mouse, UniProt Q9Z1P8 26-410).
T1 construct: also called mANGPTL4(26-410)-His
T1 sequence: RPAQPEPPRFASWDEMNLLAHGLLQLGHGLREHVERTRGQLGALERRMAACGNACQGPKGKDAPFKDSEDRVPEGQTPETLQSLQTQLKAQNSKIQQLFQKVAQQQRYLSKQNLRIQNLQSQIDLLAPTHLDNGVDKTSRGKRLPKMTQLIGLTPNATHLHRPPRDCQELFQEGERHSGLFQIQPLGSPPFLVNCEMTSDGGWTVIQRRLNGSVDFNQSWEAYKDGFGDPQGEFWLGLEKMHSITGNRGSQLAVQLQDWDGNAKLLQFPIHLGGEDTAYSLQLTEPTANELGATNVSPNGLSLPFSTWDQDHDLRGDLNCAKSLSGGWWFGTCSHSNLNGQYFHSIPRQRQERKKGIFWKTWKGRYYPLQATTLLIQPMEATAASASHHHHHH
Briefly: SPR (Biacore), antigen amine coupled. How it is done:
Possible cross-reactivity of the anti-hANGPTL4 antibodies to related proteins, i.e., hANGPTL3, human angiopoietin-like protein 5 (hANGPTL5) and mouse ANGPTL4 (mANGPTL4), was tested for the selected antibodies, i.e., H1H268P and H1H284P, using the BIACORE™ system. Briefly, anti-hANGPTL4 antibodies as well as negative controls, i.e., two monoclonal antibodies (Control a and Control b) that are non-binders to any ANGPTL proteins, were injected at 3.125 μg/mL-50 μg/mL over amine coupled chip surfaces of hANGPTL3-His (R&D Systems, cat #3829-AN) at 5228 RU, hANGPTL4-His (R&D Systems, cat #4487-AN) at 6247 RU, hANGPTL5-His (Abnova Corp., cat #H00253935-P01) at 5265 RU, and mANGPTL4-His [R26-S410 of mANGPTL4 (SEQ ID NO: 478) fused with an AS linker to a C-terminal 6-histidine tag] at 5233 RU, respectively. A polyclonal antibody specific for hANGPTL3 (R&D System, cat #BAF3485) was also tested.
(In general: Surface plasmon resonance follows binding to a sensor surface in real time, without labels.)

The values that follow come from patent publication US20130266574A1 (Regeneron, published 2013).

B1: H1H284P (antibody, V domains shown)
VH: QVQLVESGGGVVQPGRSLRLSCAASGFTFSSYGMHWVRQAPGKGLEWMAVISFDGGNKNNADSVKGRFTISRDNSKNTLYLQMNSLRAEDTAVYYCAKEGDRSGHPYFYYYGLDVWGQGTTVTVS
VL: DIQLTQSPSFLSASVGDRVTITCWASQGISSYLAWYQQKPGKAPKLLIYAASTLQSGVPSRFSGSGSETEFTLTISSLQPEDFATYYCQQLHSYPLTFGGGTKVEIK
notes: also called entire H1H284 mAb; Full mAb
As for B1, the binding result is reported as “no binding (tested: 3.125 µg/mL-50 µg/mL)”.
